Measured values as given in PMC2172889.

Legend:
[1] = molecular target: epidermal growth factor receptor (human (endogenous in MDA-MB-231)) (UniProt P00533); assay: flow cytometry on cells
[2] = molecular target: epidermal growth factor receptor (human (endogenous in MDA-MB-231)) (UniProt P00533); assay: radioligand binding

fluorescence, fold over control, at saturation [1]: 12 fold | IC50 2 (two-site competition, site 2) [2]: 1180 nM
Substance: recombinant domain III (DIII) of the laminin-5 γ2-chain (domain or fragment)
